According to publication PMC3985747 (Biochemistry, 2014):
Changes are numbered by the printed parent chain. Names and notes keep the numbering of the source.

Experiments:
SEC = molecular target: the molecule itself; test: SEC
crystal structure = molecular target: the molecule itself; test: crystal structure

B1: ArnB (wild type) of Salmonella typhimurium (enzyme, S. typhimurium, UniProt Q8ZNF3 1-385, looked up)
chain: MAEGKMMSDFLPFSRPAMGAEELAAVKTVLDSGWITTGPKNQELEAAFCRLTGNQYAVAVSSATAGMHIALMALGIGEGDEVITPSMTWVSTLNMIVLLGANPVMVDVDRDTLMVTPEHIEAAITPQTKAIIPVHYAGAPADLDAIYALGERYGIPVIEDAAHATGTSYKGRHIGARGTAIFSFHAIKNITCAEGGIVVTDNPQFADKLRSLKFHGLGVDAWDRQSGGRAPQAEVLAPGYKYNLPDLNAAIALAQLQKLDALNARRAAIAAQYHQAMADLPFQPLSLPSWEHIHAWHLFIIRVDEARCGITRDALMASLKTKGIGTGLHFRAAHTQKYYRERFPTLTLPDTEWNSERICSLPLFPDMTESDFDRVITALHQIAGQ
stoichiometry N (SEC): 2

B2: ArnB K188A mutant of Salmonella typhimurium (enzyme, S. typhimurium, UniProt Q8ZNF3 1-385, looked up)
chain: B1 chain with K188A
binding result (crystal structure): binds
